# Results as given in US12281155 (INSTITUT PASTEUR, dated 2025).
# Residue numbers refer to the chain shown, from its start.
# B1: SPK002M A4 antibody (antibody, human IgG1, kappa, V domains shown)
# VH: EVQLVESGGGLIQPGGSLRLSCAASVITVTSNYMSWVRQAPGKGLEWVSVIYPGGSTFYADSVKGRFTISADNSKNTLYLQMNSLRAEDTAVYYCARDLVVYGMDVWGQGTTVTVSS
# VL: EIVLTQSPGTLSLSPGERATLSCRASQSVSSSYLAWYQQKPGQAPRLLIYGASSRATGIPGRFSGSGSGTDFTLTISRLEPEDFAVYYCQQGVTFGGGTKVEIKR
# B2: SPK002M B2 antibody (antibody, human IgG1, kappa, V domains shown)
# VH: B1 VH with V26I, A71Y
# VL: B1 VL with V86I
# B3: SPK002M A5 antibody (antibody, human IgG1, kappa, V domains shown)
# VH: B1 VH
# VL: B1 VL with V86I
# B4: SPK002M B1 antibody (antibody, human IgG1, kappa, V domains shown)
# VH: B1 VH with V26I, A71Y
# VL: B1 VL with S31D, V86I, Q91Y
# Biological target: T1, recombinant SARS-CoV-2 Spike RBD domain, BA.2.75.2 variant (SARS-CoV-2)
# T1 construct: also called RBD BA.2.75.2 variant
# Test: competition ELISA, blocking of RBD binding to ACE2 ectodomain
row,Binder,Blocking % [%]
1,B1,96
2,B2,91
3,B3,95
4,B4,91

# Biological target: T2, recombinant SARS-CoV-2 Spike RBD domain, XBB.1.16 variant (SARS-CoV-2)
# T2 construct: also called RBD XBB.1.16 variant
# Test: as above
row,Binder,Blocking % [%]
1,B1,95
2,B2,92
3,B3,95
4,B4,97

# Biological target: T3, recombinant SARS-CoV-2 Spike RBD domain, BA.2.86 variant (SARS-CoV-2)
# T3 construct: also called RBD BA.2.86 variant
# Test: as above
row,Binder,Blocking % [%]
1,B1,80
2,B2,86
3,B3,84
4,B4,94

# Biological target: T4, recombinant SARS-CoV-2 Spike RBD domain, XBB.1.5 variant (SARS-CoV-2)
# T4 construct: also called RBD XBB.1.5 variant
# Test: as above
row,Binder,Blocking % [%]
1,B1,95
2,B2,92
3,B3,95
4,B4,97

# Biological target: T5, recombinant SARS-CoV-2 Spike RBD domain, BA.2 variant (SARS-CoV-2)
# T5 construct: also called RBD BA.2. variant
# Test: as above
row,Binder,Blocking % [%]
1,B1,93
2,B2,92
3,B3,93
4,B4,95

# Biological target: T6, recombinant SARS-CoV-2 Spike RBD domain, BA.4/5 variant (SARS-CoV-2)
# T6 construct: also called RBD BA.4/5 variant
# Test: as above
row,Binder,Blocking % [%]
1,B1,96
2,B2,91
3,B3,96
4,B4,95

# Biological target: T7, recombinant SARS-CoV-2 Spike RBD domain, Delta variant (SARS-CoV-2)
# T7 construct: also called RBD Delta variant
# Test: as above
row,Binder,Blocking % [%]
1,B1,93
2,B2,88
3,B3,93
4,B4,91

# Biological target: T8, recombinant SARS-CoV-2 Spike RBD domain, JN-1 variant (SARS-CoV-2)
# T8 construct: also called RBD JN-1 variant
# Test: as above
row,Binder,Blocking % [%]
1,B1,2
2,B2,0
3,B3,2
4,B4,66

# Biological target: T9, recombinant SARS-CoV-2 Spike RBD domain, BQ.1.1 variant (SARS-CoV-2)
# T9 construct: also called RBD BQ.1.1. variant
# Test: as above
row,Binder,Blocking % [%]
1,B1,96
2,B2,95
3,B3,96
4,B4,97

# Biological target: T10, recombinant SARS-CoV-2 Spike RBD domain, EG.5 variant (SARS-CoV-2)
# T10 construct: also called RBD EG.5.1 variant
# Test: as above
row,Binder,Blocking % [%]
1,B1,80
2,B2,70
3,B3,83
4,B4,95

# Biological target: Spike protein of SARS-CoV-2 strain BA.2.86 (hCoV-19/France/IDF-IPP17625/2023) (SARS-CoV-2)
# Test: cell-based or functional assay
row,Binder,"IC50, S-Fuse neutralization of live virus [µg/mL]"
1,B1,0.04
2,B2,0.19
3,B3,0.08
4,B4,0.03

# Biological target: Spike protein of SARS-CoV-2 strain XBB.1.16 (hCoV-19/France/GES-IPP7712/2023) (SARS-CoV-2)
# Test: cell-based or functional assay
row,Binder,"IC50, S-Fuse neutralization of live virus [µg/mL]"
1,B1,0.36
2,B2,0.32
3,B3,0.36
4,B4,0.18

# Biological target: Spike protein of SARS-CoV-2 strain JN.1 (hCoV-19/France/HDF-IPP21391/2023) (SARS-CoV-2)
# Test: cell-based or functional assay
row,Binder,"IC50, S-Fuse neutralization of live virus [µg/mL]"
1,B1,54.6
2,B2,85.8
3,B3,50.9
4,B4,4.1

# Biological target: Spike protein of SARS-CoV-2 strain D614G (hCoV-19/France/GE1973/2020) (SARS-CoV-2, UniProt P0DTC2 14-1273)
# Test: cell-based or functional assay
row,Binder,"IC50, S-Fuse neutralization of live virus [µg/mL]"
1,B1,0.11
2,B2,0.09
3,B3,0.09
4,B4,0.11

# Biological target: Spike protein of SARS-CoV-2 strain XBB.1.5 (GISAID EPI_ISL_16353849) (SARS-CoV-2)
# Test: cell-based or functional assay
row,Binder,"IC50, S-Fuse neutralization of live virus [µg/mL]"
1,B1,0.12
2,B2,0.14
3,B3,0.12
4,B4,0.07

# Biological target: Spike protein of SARS-CoV-2 strain EG.5.1 (hCoV-19/France/GES-IPP15954/2023) (SARS-CoV-2)
# Test: cell-based or functional assay
row,Binder,"IC50, S-Fuse neutralization of live virus [µg/mL]"
1,B1,2.8
2,B2,5.53
3,B3,2.86
4,B4,0.19

# Biological target: T1, recombinant SARS-CoV-2 Spike RBD …
# Test: ELISA on coated RBD
row,Binder,Binding AUC
1,B1,34
2,B2,29
3,B3,34
4,B4,30

# Biological target: T2, recombinant SARS-CoV-2 Spike RBD …
# Test: ELISA on coated RBD
row,Binder,Binding AUC
1,B1,30
2,B2,30
3,B3,31
4,B4,30

# Biological target: T3, recombinant SARS-CoV-2 Spike RBD …
# Test: ELISA on coated RBD
row,Binder,Binding AUC
1,B1,38
2,B2,39
3,B3,38
4,B4,39

# Biological target: T4, recombinant SARS-CoV-2 Spike RBD …
# Test: ELISA on coated RBD
row,Binder,Binding AUC
1,B1,35
2,B2,32
3,B3,35
4,B4,31

# Biological target: T5, recombinant SARS-CoV-2 Spike RBD …
# Test: ELISA on coated RBD
row,Binder,Binding AUC
1,B1,29
2,B2,26
3,B3,27
4,B4,29

# Biological target: T6, recombinant SARS-CoV-2 Spike RBD …
# Test: ELISA on coated RBD
row,Binder,Binding AUC
1,B1,30
2,B2,30
3,B3,32
4,B4,31

# Biological target: T7, recombinant SARS-CoV-2 Spike RBD …
# Test: ELISA on coated RBD
row,Binder,Binding AUC
1,B1,31
2,B2,32
3,B3,33
4,B4,33

# Biological target: T8, recombinant SARS-CoV-2 Spike RBD …
# Test: ELISA on coated RBD
row,Binder,Binding AUC
1,B1,31
2,B2,28
3,B3,32
4,B4,38

# Biological target: T9, recombinant SARS-CoV-2 Spike RBD …
# Test: ELISA on coated RBD
row,Binder,Binding AUC
1,B1,30
2,B2,31
3,B3,30
4,B4,31

# Biological target: T10, recombinant SARS-CoV-2 Spike RBD …
# Test: ELISA on coated RBD
row,Binder,Binding AUC
1,B1,34
2,B2,32
3,B3,35
4,B4,33
